Assay results: the nanobody polyreactivity screen of Harvey et al. (2022)

Assay: yeast display, Sf9 membrane polyspecificity reagent, FACS + sequencing; frameworks hold sequencing errors
Summary of the method: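 Nanobodies came from a synthetic yeast display library in Saccharomyces cerevisiae BJ5465, induced with galactose for 36–48 hours and stained for 1 hour at 4 °C with 10% biotinylated, detergent-solubilized Sf9 membrane reagent. Cells were enriched on streptavidin microbeads and then FACS-sorted, with low and high (top ~1%) gates set on anti-HA fluorescence for expression and streptavidin fluorescence for reagent binding. Each polyreactivity label reflects the gate a clone came from. Genes were amplified by colony PCR, sequenced by MiSeq 2 × 250 and filtered by CDR length.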

Sequence	polyreactivity (PSR sort gate)
QVQLVESGGGLVQAGGSLRLSCAASGRTFRRYAMGWYRQAPGKERELVAASSRGANTNYADSVKGRFTISRDNAKNTVYLQMNSLKPEDTSVYYGNAYGIDTGDYWGQGTKVTVSS	high polyreactivity
QVQLVESGGGLVQAGGSLRLSCAASGRTFGLNAMGWYRQAPGKERELVAAITSGGSTYYADSVKGRFTISRDNAKNTVYLQMNSLKPEDTAVYYCAARYWRSYGISDILSDVDYWGQGTQVTVSS	low polyreactivity
QVLLVESAGGLVQAGGSLRLSCAASGRTFYRYAMGWYRQAPGKERELVAVISWTSGSTYYADSVKGRFTISRDNAKNTVYLQMNSLKPEDTAVYYCAARRGGSYRYEYWGQGTQVTVSS	high polyreactivity
QVQLVESGGGLVQAGGSLRLSCAASGRTFGPYAMGWYRQAPGKERELVATISSNGASTYYADSVKGRFTISRDNAKNTVYLQMNSLKPEDTAVYYCAAEFHFWGYLYDYWGQGTQVTVSS	low polyreactivity
QVQLVESGGGLVQAGGSLRLSCAASGRTFQVNAMGWYRQAPGKERELVAAISRRGGSTYYADSVKGRFTISRDNAKNTVYLQMNSLKPEDTAVYYCAATASTYYLWRYNYWGQGTQVSVSS	high polyreactivity
QVQLQESGGGLVQAGGSLRLSCAASGLILARNYMGWYRQAPGTERELVSGIGVGASTNYADSVKGRFTISRDNAKNTVYLQMNSLEPEDTAVYYCAVGDTVLGYHYYWGQGTQVTVSN	low polyreactivity
QVQLVESGGGLVQAGGSLRLSCAASGFIFNNYAMGWYRQAPGKERELVAAITWSGGGTYYADSVKGRFTISRDNAKNTVYLQMTSLKAEDTAVYYCAVYYPAYRDEYWGQGTQVTVSS	high polyreactivity
QVQLVESGGGLVQAGGSLRLSCAASGFTFHNYAMGWYRQAPGKERELVAAITWDGGSTYYADSVKGRFTISRDNEKNTVDLQLNRLKPEDTAVYYCALDQYYYYYADYNFDYWGQGTQVTVSS	high polyreactivity
QVQLVESGGGLVQAGGSLRLSCAASGSTLSFNAMGWYRQAPGKERELVAAITSSGGSTYYADSVKGRFTISRDNAKNTVYLQMKSLKPEDTAVYYCAADRYTVRMDYWGQGTQVTVSS	high polyreactivity
QVQLQESGGGLVQADGSLRLSCAASGSMFGYYYMGWYRQAPGKDRELVATIHICGITNYADSVKGRFTISRDNAKNTVYLQMNSLKPDDTAVYYCAADEYAQRDLGYWGQGTQVTVSS	low polyreactivity
QVQLVESGGGLVQAGGSLRLSCAASGFTFITNAMGWYRQAPGKERELVASISIGGSTNYADSVKGRFTISRDNAKNTVYLQMNSLKPEDTAVYYCAARVYRRLFLPGRYGRPLGYWGQGTQVTVSS	high polyreactivity
QVQLVESGGGLVQAGGSLLLSCAASGSTSQPYAMGWYRQAPGKERELVASITNGGITYYADSVKGRFTISRDNAKNTVYLQLNSLKPEVTAVYYCNADNVFEGYDRRSARACYRYYYWGQGTQVTVSS	low polyreactivity
QVQLVEAAGGLVQAGGSLRLSCAASGSIFRNNAMGWYSPAPGKARELVAVISRRSGNTYYADSVKGRLTISRENAKNPVYLLMNSLKPEDSAVYYCAADYSNSSIRGDYWGQGTEVTVSS	low polyreactivity
QLQLQESGGGLVQAGGSLRLSCAASALITKVYSMGWYRQAPGKERELVAVINSNGGSTYYADSVKGRFTISRDNAQNTVYLQMNSLKPEDTAVYYCRYFRPYGYNYWGQGTQVTVSS	high polyreactivity
QDQLVESGGGVVQAGGSLRLSCAASGRISIWYAMGWYRQAPGKERELVARISTSSGRTYYADSVKGRFTISRDNAKNTVYLQMNSLKPEDTAVYYCNAAGYRIYFSTRYDYWGQGTQVTVSS	high polyreactivity
QVQLVESGGGLVQAGGSLRLSCAASGSTFKGYSMGWYRQAPGKERALVAAISRSGTRTYYADSVKGRFTISRDNAKNTVYLHMTILKPEVTAVYYCNKVTGFIAHDNEKGRDYWGQGTQVTVSS	low polyreactivity
